T1: 原核表达的TF-FGL1融合蛋白 (human FGL1 Leu23-Ile312 fused to trigger factor, pCold TF, expressed in E. coli BL21(DE3)) (human)
T1 construct: also called 原核表达的FGL1蛋白; TF-FGL1蛋白
T1 chain: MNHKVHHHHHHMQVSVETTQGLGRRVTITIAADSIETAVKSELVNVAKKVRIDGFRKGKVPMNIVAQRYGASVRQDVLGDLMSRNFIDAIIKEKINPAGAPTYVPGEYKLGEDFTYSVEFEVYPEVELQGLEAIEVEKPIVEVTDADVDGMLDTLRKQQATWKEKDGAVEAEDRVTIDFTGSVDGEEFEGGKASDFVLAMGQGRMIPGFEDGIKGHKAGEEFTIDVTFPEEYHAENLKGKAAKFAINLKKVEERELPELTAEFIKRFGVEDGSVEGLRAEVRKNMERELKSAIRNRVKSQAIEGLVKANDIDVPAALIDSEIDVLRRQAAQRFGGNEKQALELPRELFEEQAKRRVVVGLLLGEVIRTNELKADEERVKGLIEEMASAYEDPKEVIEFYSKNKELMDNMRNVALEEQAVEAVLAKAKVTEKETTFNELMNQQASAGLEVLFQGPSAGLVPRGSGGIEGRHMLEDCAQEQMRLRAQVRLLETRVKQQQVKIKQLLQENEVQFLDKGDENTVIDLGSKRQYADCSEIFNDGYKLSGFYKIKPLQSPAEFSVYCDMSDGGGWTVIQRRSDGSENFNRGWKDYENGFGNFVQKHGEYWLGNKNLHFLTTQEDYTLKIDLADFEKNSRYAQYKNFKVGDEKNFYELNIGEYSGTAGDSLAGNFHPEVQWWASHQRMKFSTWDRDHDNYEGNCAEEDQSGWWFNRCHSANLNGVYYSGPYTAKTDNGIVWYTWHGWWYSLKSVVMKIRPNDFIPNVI

T2: 真核表达的人FGL1重组蛋白 (human FGL1 Leu23-Ile312 with C-terminal 6xHis, expressed in 293F cells) (human, UniProt Q08830 23-312)
T2 construct: also called 真核表达的FGL1蛋白; 真核表达的人FGL1蛋白
T2 sequence: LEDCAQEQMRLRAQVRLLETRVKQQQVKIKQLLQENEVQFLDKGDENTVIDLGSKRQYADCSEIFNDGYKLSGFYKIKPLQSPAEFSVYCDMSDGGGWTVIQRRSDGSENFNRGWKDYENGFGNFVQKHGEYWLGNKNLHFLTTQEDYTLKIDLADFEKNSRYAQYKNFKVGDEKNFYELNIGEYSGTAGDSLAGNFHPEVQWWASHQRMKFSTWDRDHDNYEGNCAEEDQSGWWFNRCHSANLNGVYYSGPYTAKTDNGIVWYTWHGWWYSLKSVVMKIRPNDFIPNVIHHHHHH

B1: 克隆号为MJ9-1的杂交瘤细胞(CGMCC No.23015)分泌的抗FGL1单克隆抗体 (antibody, mouse IgG1, kappa, V domains shown)
VH: EVQLVESGGGLVKPGGSLKLSCAASGFTFSDGYMYWVRQTPEKRLEWVATISDGGSGTYYPDSVKGRFTISRDNAKNNLYLQMSSLKSEDTAMYYCARAATVTRWFAYWGQGTLVTVSA
VL: DIQMNQSPSSLSASLGDTITITCHASYNINVWLTWYQQKPGNIPKLLIYKASKLHTGVPSRFSGSGSGTGFTLTISSLQPEDIATYYCQQGQSYPLTFGGGTKLEIKR
notes: also called MJ9-1分泌的单克隆抗体; 第一单克隆抗体
B2: 克隆号为MJ9-4的杂交瘤细胞(CGMCC No.23016)分泌的抗FGL1单克隆抗体 (antibody, mouse IgG1, kappa, V domains shown)
VH: EVKLQQSGAELAKPGASVKMSCKASGYIFTGGWMHWVKQRPGQGLEWIGYINPSTDGTDYNQKFEDKATLTADKSSSTAYMQLSSLTSEDSAVYYCAREGYYGSSPYFDYWGQGTTLTVSS
VL: DIVITQTPATLSVTPGDSVSLSCRASQSVSNNLHWYQQKSHESPRLLIKYVSQSISGIPSRFSGSGSGTDFTLSINSVETEDFGMYFCQQSNSWPLYTFGGGTKLEIKR
notes: also called MJ9-4分泌的单克隆抗体; 第二单克隆抗体

Columns and labels:
[1] = target: T1, 原核表达的TF-FGL1融合蛋白 (human FGL1 …); test: indirect ELISA, antigen coated at 0.5 µg/mL, purified antibody 0.5 µg/mL
[2] = target: T2, 真核表达的人FGL1重组蛋白 (human FGL1 Leu23-Ile312 …); test: indirect ELISA screen, hybridoma supernatant on coated human FGL1 recombinant protein (0.5 µg/mL)
[3] = target: T2, 真核表达的人FGL1重组蛋白 (human FGL1 Leu23-Ile312 …); test: indirect ELISA, antigen coated at 0.5 µg/mL, purified antibody 0.5 µg/mL

Binder	binding result [1]	binding result [2]	binding result [3]
B1	binds	binds	–
B2	binds	–	binds

— CN114075552A (MEDX TRANSLATIONAL MEDICINE CO LTD, dated 2022)
